# The DeepSol protein solubility set
# Assay: soluble on expression in E. coli; label from the status in PepcDB or PDB records
row,Sequence,soluble on expression in E. coli
1,MNFSIRVILLLTGFVSLAFSAPKFLTISDIHYGAENIAKDGQDTGKEFLDVTFKRFEELSQNVDFILHLGDLPTHSLFSIPKKEEYEQVVFHGLHEANPGQKPMFYITGNNDSLLGNYQPFSSDNKSPLNLALDWDGACAYCDGLIIDDTHMRKDGYYSSYVIPNNKEIILIALNSVQWTKTPVFLPKYPNQQRDAFVQLFWLEQQLKNHRAKQLLLAMHVPPGTAYNGNRFWHDIYLDRFLTLLDKYHQSYDQITILFSHSHMEEFRKIRLSDGSTIYAFSTPGISRAHHNNPGMKIFDLDKQMRVRNSTTYYTSDLYEWGNEYYQAMNTPDAIFPNCQNKTIPQCLDTLSPEQVCNNLEVGLFYGVKSTRVPYQGCIKTYQINLEHHHHHH,not soluble
2,MNGPIIMTREERMKIVHEIKERILDKYGDDVKAIGVYGSLGRQTDGPYSDIEMMCVMSTEEAEFSHEWTTGEWKVEVNFYSEEILLDYASQVESDWPLTHGQFFSILPIYDSGGYLEKVYQTAKSVEAQTFHDAICALIVEELFEYAGKWRNIRVQGPTTFLPSLTVQVAMAGAMLIGLHHRICYTTSASVLTEAVKQSDLPSGYDHLCQFVMSGQLSDSEKLLESLENFWNGIQEWTERHGYIVDVSKRIPF,soluble
3,MNHAQLRRVTAESFAHYRHGLAQLLFETVHGGASVGFMADLDMQQAYAWCDGLKADIAAGSLLLWVVAEDDNVLASAQLSLCQKPNGLNRAEVQKLMVLPSARGRGLGRQLMDEVEQVAVKHKRGLLHLDTEAGSVAEAFYSALAYTRVGELPGYCATPDGRLHPTAIYFKTLGQPT,soluble
4,MNHLLSMEHLSTDQIYKLIQKASQFKSGERQLPNFEGKYVANLFFENSTRTKCSFEMAELKLGLKTISFETSTSSVSKGESLYDTCKTLESIGCDLLVIRHPFNNYYEKLANINIPIANAGDGSGQHPTQSLLDLMTIYEEYGYFEGLNVLICGDIKNSRVARSNYHSLKALGANVMFNSPNAWIDDSLEAPYVNIDDVIETVDIVMLLRIQHERHGLAEETRFAADDYHQKHGLNEVRYNKLQEHAIVMHPAPVNRGVEIQSDLVEASKSRIFKQMENGVYLRMAVIDELLK,not soluble
5,MNHNDVLRSLRYMLKVNDAKMAEIIGLSGLEVHPLVLATYLKKEEEEGFVRCPERVMAHFLDGLVIYRRGKDESRPQQPIELPVTNNLILKKLRVAFELKEDDLHAILKSVNFPVSKPELSALFRKAGHDNYRPCGDQLMRNFLKGLTLRVRG,not soluble
6,MNHTSGITPLHPSIFHNILGLVALQTTRVGGVSASPLDSLNLGTHVGDDPERVRENERRLCAFLEISCESIVTTGQVHGTEIAVVTGPGKLDGYDALITTVRGLFVGILTADCYPILIYDRRTRACGAAHAGWQGTAGRIAEKTVNAMHNSFGTRPEDCLAWVGTGISGECYEIGGEVAARFSSRYLKPSPSGEGRQLLDLSAANRDQLIEAGIPPSQVQCSELCSYRDADRFFSYRRDNGKTGRMLALIGLRHSD,soluble
7,MNIDVEFHIRHNYPWNKLPANVRQSLGNSQREYEKQVVLYSIRNQLRYRNNLVKHVKKDERRYYEELLKYSRDHLMLYPYHLSDIVCYVCL,not soluble
8,MNIGVIGTGNMGTILIEAFLDSGAVKADQLVITNRTLAKAFAIQRAHPGIAVVADAAEVIKQSSLVFLCVKPLDIHPLLQQLAPHWTREHCLVSITSPISVEQLEAAVPCQIVRAIPSIANRALSGSILVTFGSRCSTTCRQTIDDLLRRIASPVYIDEAITRVASDISSCGPAFFSYLLQRFIDAAAAKTAITKEQATMLATDMIIGLGELLKRNLYTLPTLQEKVCVKGGITGEGIAVLEQRMNGVFEEVLAKTHEKFKEDVEKVKQQFS,not soluble
9,MNILLCCSAGMSTSLLVTKMEAAAKARGLEGKIWAVSGDAVKTNIDQADVLLLGPQVRYMLSSMKTLADERNVGIDVINPMHYGMMNGEAVLDHALTLKK,not soluble
10,MNIQKAHDVAPPEWLAQVREPALCPGQIIVDPHHHLWDRQGQLYLLPQFLEDQAGDHRIVSTVYVQGRAMYRAGAHALAPVGETEFARGVAAMCASGRYGETRVCDGIVAHADLTQGDGVERVLQAHVEAGGRHFKGIRHMATWDADPALMNPDVAPPPHLLGETRFRRGFAVLDRMGLVFDAWVFHPQLADVVALASAFPDTTIVLNHLGGILNTGSYAGRREAIRADWLASLRELATCPNVYLKLGGLGMRISGFDYPSRPRPPNSTELAADFAPYMLPAIDLFGPERCMFESNFPVDKRSYTYGVLWNAFKRLAADMSQAERDHLFYQTAAKAYRLNLDHIAADMAGDPLEHHHHHH,not soluble
11,MNIRERKRKHLEACLEGEVAYQKTTTGLEGFRLRYQALAGLALSEVDLTTPFLGKTLKAPFLIGAMTGGEENGERINLALAEAAEALGVGMMLGSGRILLERPEALRSFRVRKVAPKALLIANLGLAQLRRYGRDDLLRLVEMLEADALAFHVNPLQEAVQRGDTDFRGLVERLAELLPLPFPVMVKEVGHGLSREAALALRDLPLAAVDVAGAGGTSWARVEEWVRFGEVRHPELCEIGIPTARAILEVREVLPHLPLVASGGVYTGTDGAKALALGADLLAVARPLLRPALEGAERVAAWIGDYLEELRTALFAIGARNPKEARGRVERV,soluble
12,MNITDLKPTKVWKFFHEITQVPRPSKKEEKILAYLVKFAEDRNLKYRTDEVGNLVIEKPATPGYEHLETVILQSHMDMVCEKNADKVHDFENDPIRTIIDGEWLHADGTTLGADNGIGCAAELAILDSDDIEHGPIECLFTMDEETGMTGAMNLKPGFFNGKILLNLDSEDEGELFIGCAGGMGTMVEFAYEKREATDDYLYFEVKVSGLKGGHSGGEIHIGLGNANKILTRYLYALEHELDWKLCSFQGGNLHNAIPREAHAVIGLKADQKERARVILNELAAAVEDELKRVDPGVKLEMKSVGKPAYRIDCDTKRRLVRALYACPHGVYGMSHDIEGLVETSSNLASVKMKEDDKIYVETSQRSSTSSLISDIANTVASVFELADAKISFRDPYPGWKPNPDSPILKAASESYERIFGRKPAIKAIHAGLECGLFLDKYPYLDMVSFGPTLRDVHSPVEKIEIKTVQLWWDHLVDILKHIPAAK,not soluble
13,MNIVAKPTSFISGAVDGVVDLKNTYTENQHLKERLEELAQLESEVADLKKENKDLKESLDITDSIRDYDPLNASVISRNPTNWNDQVEIDKGSSDGVKPDMAVTTPSGLIGKVTTTGAKSATVELLTSSDVKNRVSAKVQGKENAFGIINGYDSDTKLLELKQLPYDMKFKKGQKVVTSGLGGKFPAGIFIGTIEKVETDKMGLSQTAFIKPGADMYDLNHVTVLKRSAEAGTTDDDTTSSDTTGGQGSHHHHHH,soluble
14,MNKEALVNRLNASAKRQKADIVIKNGKIMDVYNQEWIYEDIAITDGVIVGLGEYEGENIIDAEGQMIVPGFIDGHVHIESSMVTPIEFAKAVLPHGVTTVVTDPHEIANVSGEKGIEFMLEQARHTPLNIHFMLPSSVPAASFERSGAILKAADLKPFYEEEEVLGLAEVMDYVSVQQAEKDMVQKLLDARVAGKRIDGHLAGLSTDLINIYRTAFVLNDHEVTSKEEALDRIRRGMYVMMREGSVAKNTLNVLPAVNEKNRTPVFFCTDDKHVDDLLSEGSVNHQVKMAIQAGLNPFLAYQLGSLNAAECYGLDTKGAIAPGFDADLLFVSDLENVTVTMTMVKGQTVAEDSKAVYQDHASTAAPDQALLDSVKLAAPLNKQDFHMPIDSEQQINVIQIIPNQLETRLVQVPAPVAREFEPDTELDLLKIAVVERHKGLKETGLGVVKGFGFKSGAIATTISHDSHNIIAVGTNDEDIAAAVNKLQEIGGGLTIIKNGEELHSVPLPIAGLLSDQSAEQVNQSLLTLHDKLSLIGFTGGFNPFLTLSFLALPVIPDIKMTTTGLFDVKSFQHISLQ,not soluble
15,MNKFGAEKIFIEKQSGATITHRPIFQEALDFVRAQDIFIVEAIDRLGRNYDEIIDSVNYLKKKNVRLIITSLPIMAEAIGNPLLDKFIKDLIIQILAMIAEQERTESKRRQAQGIKIAKANGVYKGRPKLYSADTKDPQRRLVYKSIVQDLKNGVAISKIAKDYNITRQTIYRIKKEIHELEIN,not soluble
16,MNKKEIQAYQSAFEKFNPFYGVDFPITSVKLCELINKMRNDHNEKVVELRHDHLMNKIREFSEQVNAPNFRVVESSYKDTKGEDRKCYLLGKTECRAIAATESKSVCYMIMVYLDQLEQIFEKAKEAKATEFDRKLSKQGVTWREACRTVGIEHPDLALK,not soluble
17,MNKKELIDILLYDVALEHSAIIQYLYNVFLIGDPEITNEIESIARQEMRHLKWFAQKVVELGGKVTLNRIEEAIKVGQSWEEMLKNDVDAEEEAIKIYSQQLEIVKDDSVKKLLDRVINDEMRHRDEFSEMLEELKNKKIEEAKQEAGIDSEIFNILNKLLQKEYRLILDYLYHFFHSKTWQEKDTSLDIAIESMFHMGELGEKIGELGGYPDLSLPKAKHFKGFTPEEVIEDIKEEETASRMYEENAKKVTREDLVKLFKWFEKQEDYHAQRLKELFRKMNRFTIGGLGEES,not soluble
18,MNKKIGITLGDPAGIGPELILKISKHFKEKFTYVIYGEEKTLLEASKLTGIKLNYKKIEKVEEAKERGVYLIDLNVLKVPVVEPSVSSGKAAVAYLARAVADAIRGNIHGILTMPINKFWAKKAGFQYEGQTEFLAKASGTKDYAMMMYSEKLKVVLLTTHIPLKDVPNYVKKEEILKKVRLIRKEFLEKFKFEPLIKVLGLNPHAGEMGELGREEIEEIIPAVEEAKKEGIKVVGPLVPDVAFINPSEEDVFLCMYHDQGLIPFKMLAFDEGVNFTLGLPFIRTSPDHGTAYDIAWKNKARESSSLHALRLIEDLLDKI,soluble
19,MNKKMIFFDIDGTIVDEKTHVIPEGTIAAIKKARSNGHLVFINTGRTFFNVPDSIRQIGFDGYVCGCGTYIHINGQTLLEKSISHKRCVEIVEKLRECKLDALLEGQKDFFFDQREPVSEKTLELKSKFGKRGYDVSKSWDDSDIVFDKFVIWTRKESNLEAFKSHISNDFDYIDREDEEGEFGEIVLKGYSKATGIKFLQDYFNIPIEDCYALGDSLNDLPMLQYVPNSIAMGNSSKGLFDLVAFVTKDIMEDGIEYALKHYNII,not soluble
20,MNKLKYLQGYPEHILAQVAPMVENGKLAEWVKKKYPTMHDITSEKALFDYTQALKNKYIKKSSPLSKVVYDPKIHVVNNALGLHTFVSRIHGNKLKAKNEIRISSVFRKAPEPLLRMLVVHELAHIKEKEHNKAFYALCCHMEPEYHQLEFDARLYLTYLETLLEHHHHHH,soluble
21,MNKRDYMNTSVQEPPLDYSFRSIHVIQDLVNEEPRTGLRPLKRSKSGKSLTQSLWLNNNVLNDLRDFNQVASQLLEHPENLAWIDLSFNDLTSIDPVLTTFFNLSVLYLHGNSIQRLGEVNKLAVLPRLRSLTLHGNPMEEEKGYRQYVLCTLSRITTFDFSGVTKADRTTAEVWKRMNIKPKKAWTKQNTL,soluble
22,MNLFASEIFVFTPKGEIKTMPQNCTALDFAFSIHTFLGSHCIGAKVNHKLVPLSHKLQSGDQVEILTSKSQHVQPLEHHHHHH,not soluble
23,MNLHEYQAKQLFARYGLPAPVGYACTTPREAEEAASKIGAGPWVVKCQVHAGGRGKAGGVKVVNSKEDIRAFAENWLGKRLVTYQTDANGQPVNQILVEAATDIAKELYLGAVVDRSSRRVVFMASTEGGVEIEKVAEETPHLIHKVALDPLTGPMPYQGRELAFKLGLEGKLVQQFTKIFMGLATIFLERDLALIAINPLVITKQGDLICLDGKLGADGNALFRQPDLREMRDQSQEDPREAQAAQWELNYVALDGNIGCMVNGAGLAMGTMDIVKLHGGEPANFLDVGGGATKERVTEAFKIILSDDKVKAVLVNIFGGIVRCDLIADGIIGAVAEVGVNVPVVVRLEGNNAELGAKKLADSGLNIIAAKGLTDAAQQVVAAVEGK,soluble
